Results on 8 molecules are retold here after US20260167721A1 (ABLEXIS, published 2026).

Test [1] deals with T1, recombinant human CD3 epsilon/delta heterodimer (human, UniProt P07766 23-126; P04234 22-105).
T1 construct: Recombinant protein in solution (200-50 nM) in the Octet assay; also called hCD3 E/D; human CD3E/D
Description: Octet BLI, mAb on FAB2G sensor, hCD3 E/D 200-50 nM; R^2 1.00. On the technique in general: BLI is a label-free optical method that tracks binding on a fibre tip over time.

Test [2] has as its target T2, recombinant human CD3 epsilon/gamma heterodimer (human, UniProt P07766 23-126; P09693 23-116).
T2 construct: Recombinant protein in solution (200-50 nM) in the Octet assay; also called hCD3 E/G
The test is described as follows: Octet BLI, mAb on FAB2G sensor, hCD3 E/G 200-50 nM; R^2 0.84.
Description: (§1) Samples were evaluated by flow cytometry analysis against Jurkat and human Pan-T cells (FIG. 1B) as well as by Octet against recombinant human CD3 proteins to evaluate apparent affinities and binding off-rates (Table 6, infra).

For test [3], the target named is T1, recombinant human CD3 epsilon/delta …. Description: Octet BLI, mAb on FAB2G sensor, hCD3 E/D 200-50 nM; R^2 0.99.
Test [4] shares this target. The test is described as follows: Octet BLI, mAb on FAB2G sensor, hCD3 E/D 200-50 nM; R^2 0.97.
Description: as §1
For test [5], the target named is T3, CD3 on Jurkat wild-type cells (UniProt P07766 23-207; P04234 22-171; P09693 23-182).
T3 construct: whole, on cells; also called Jurkat WT
The test is described as follows: flow cytometry on Jurkat WT cells, antibody at 1 ug/ml. (In flow cytometry, cells or beads pass a laser one at a time.)

Test [6] has as its target T3, CD3 on Jurkat wild-type cells. The test is described as follows: flow cytometry on Jurkat WT cells, antibody at 10 ug/ml.
For test [7], the target named is T4, CD33 on KILR-HL60 cells (UniProt P20138 18-364, limits assumed).
T4 construct: whole, on cells; Target of the gemtuzumab arm; also called CD33 expressing cells
The test is described as follows: flow cytometry on KILR-HL60 (CD33 expressing) cells, antibody at 1 ug/ml.

Test [8] concerns the target T4, CD33 on KILR-HL60 cells. Description: flow cytometry on KILR-HL60 (CD33 expressing) cells, antibody at 10 ug/ml.

Positions count from the first letter of the chain named. Names may count otherwise.

T4 sequence (P20138 18-364 limits assumed): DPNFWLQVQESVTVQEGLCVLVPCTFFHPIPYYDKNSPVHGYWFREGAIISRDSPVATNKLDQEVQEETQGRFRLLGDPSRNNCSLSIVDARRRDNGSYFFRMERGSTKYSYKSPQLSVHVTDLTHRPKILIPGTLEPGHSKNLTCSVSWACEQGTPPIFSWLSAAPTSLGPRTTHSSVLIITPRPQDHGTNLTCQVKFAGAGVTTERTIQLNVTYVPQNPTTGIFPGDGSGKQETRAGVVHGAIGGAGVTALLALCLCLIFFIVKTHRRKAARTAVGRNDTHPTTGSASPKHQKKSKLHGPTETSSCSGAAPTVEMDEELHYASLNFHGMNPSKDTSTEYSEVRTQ
T3 sequence (P07766 23-207, chain 1 of 3): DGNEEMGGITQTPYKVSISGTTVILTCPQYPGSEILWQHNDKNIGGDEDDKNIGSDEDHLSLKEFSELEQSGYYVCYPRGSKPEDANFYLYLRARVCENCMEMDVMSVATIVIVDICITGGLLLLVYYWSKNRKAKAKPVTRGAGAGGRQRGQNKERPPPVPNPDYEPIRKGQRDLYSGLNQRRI
T3 sequence (P04234 22-171, chain 2 of 3): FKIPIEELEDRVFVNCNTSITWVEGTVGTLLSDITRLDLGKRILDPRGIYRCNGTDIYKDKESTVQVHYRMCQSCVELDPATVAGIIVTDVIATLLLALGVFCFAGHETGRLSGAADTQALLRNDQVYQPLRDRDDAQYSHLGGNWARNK
T3 sequence (P09693 23-182, chain 3 of 3): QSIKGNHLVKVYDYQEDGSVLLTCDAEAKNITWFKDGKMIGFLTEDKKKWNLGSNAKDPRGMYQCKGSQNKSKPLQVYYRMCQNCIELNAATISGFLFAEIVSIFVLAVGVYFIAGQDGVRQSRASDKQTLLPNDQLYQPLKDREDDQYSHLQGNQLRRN
T2 sequence (P07766 23-126, chain 1 of 2): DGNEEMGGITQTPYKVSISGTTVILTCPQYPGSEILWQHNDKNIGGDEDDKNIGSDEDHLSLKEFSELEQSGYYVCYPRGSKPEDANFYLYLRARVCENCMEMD
T2 sequence (P09693 23-116, chain 2 of 2): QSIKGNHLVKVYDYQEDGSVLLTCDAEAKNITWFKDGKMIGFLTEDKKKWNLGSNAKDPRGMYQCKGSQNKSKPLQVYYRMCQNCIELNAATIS
T1 sequence (P07766 23-126, stated change not applied, chain 1 of 2): as the sequence (P07766 23-126, chain 1 of 2) above
T1 sequence (P04234 22-105, stated change not applied, chain 2 of 2): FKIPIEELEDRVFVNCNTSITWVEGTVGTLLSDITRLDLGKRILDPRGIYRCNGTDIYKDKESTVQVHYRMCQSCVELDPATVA

B1: ABL-CD3-45 (antibody, V domains shown)
VH: EVQLVESGGGLVQPGGSLRLSCAASGFTFSSYWMSWVRQAPGKGLEWVANIKEDGSEKYYVDSVKGRFTISRDNAKNSLYLQMNSLRAEDTAVYYCARERRTGYLDYWGQGTLVTVSS
VL: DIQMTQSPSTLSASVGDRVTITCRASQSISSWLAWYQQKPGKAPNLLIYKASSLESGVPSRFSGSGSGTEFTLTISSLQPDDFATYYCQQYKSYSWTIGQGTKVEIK
notes: Chimeric hybridoma mAb: human V, CH1, upper hinge; mouse middle hinge, CH2, CH3
For orientation: Kd means the concentration at which binding is half-saturated. The term koff denotes the rate constant with which the complex falls apart. Broadly, the kon is a measure of how fast the partners come together. With B1, in test [1], the Kd came to 13.7 nM, the Response turned out to be 0.2, the koff turned out to be 0.000475 s⁻¹ and the on-rate (kon) amounted to 34600 M⁻¹ s⁻¹. In addition, in test [2], the Kd came to 15.8 nM, the Response worked out at 0.03, the koff amounted to 0.00375 s⁻¹ and the kon came out at 237000 M⁻¹ s⁻¹.

B2: ABL-CD3-9 (antibody, V domains shown)
VH: EVQLVDSGGGLVKPGGSLRLSCAASGFTFSSYSMNWVRQAPGKGLEWVSSVNSRGSYIYYADSVKGRFTISRDNAKNSLYLQMNSLRADDTAVYYCARDRRELLLDYWGQGTLVTVSS
VL: SYELTQPPSVSVSPGQTARITCSGDALPKKYAYWYQQKSGQAPVLVIYEDSKRPSGIPERFSGSSSGTMATLTISGAQVEDEADYYCYSTDSSGNHCWVFGGGTKLTVL
notes: as for B1
Take B2: in test [3], the dissociation constant (Kd) is 70.8 nM, the Response turned out to be 0.34, the dissociation rate constant (koff) was found to be 0.0393 s⁻¹ and the on-rate constant (kon) worked out at 555000 M⁻¹ s⁻¹. In addition, in test [2], the dissociation constant (Kd) is 110 nM, the Response was 0.1, the koff was 0.114 s⁻¹ and the kon was 1.04e+06 M⁻¹ s⁻¹.

B3: ABL-CD3-35 (antibody, V domains shown)
VH: B2 VH with D6E, N77D
VL: B2 VL
notes: as for B1
In the case of B3, in test [4], the Kd came to 54.7 nM, the Response was 0.36, the koff stood at 0.0271 s⁻¹ and the kon worked out at 495000 M⁻¹ s⁻¹. Besides, in test [2], the Kd is 14.2 nM, the Response was determined as 0.12, the koff worked out at 0.0144 s⁻¹ and the on-rate (kon) is 1.02e+06 M⁻¹ s⁻¹.

B4: CD3 × CD33-BspAb62 (bispecific antibody)
scFv-Fc: NFMLTQPHSVSESPGKTVTISCTRSSGSIASNYVQWYQQRPGSSPTTVIYEDNQRPSGVPDRFSGSIDSSSNSASLTISGLKTEDEADYYCQSYDSSNHVFGCGTKLTVLGGGGSGGGGSGGGGSGGGGSEVQLVESGGGLVQPGGSLRLSCAASGFTFSRYSMNWVRQAPGKCLEWVSYISSSSSSIYYADSVKGRFTISRDNAKNSLYLQMNSLRDEDTAVYYCARDRRATLDYWGQGTLVTVSSGGGGSDKTHTCPPCPAPEFEGGPSVFLFPPKPKDTLMISRTPEVTCVVVDVSHEDPEVKFNWYVDGVEVHNAKTKPREEQYNSTYRVVSVLTVLHQDWLNGKEYKCKVSNKALPASIEKTISKAKGQPREPQVYTLPPCREEMTKNQVSLWCLVKGFYPSDIAVEWESNGQPENNYKTTPPVLDSDGSFFLYSKLTVDKSRWQQGNVFSCSVMHEALHNHYTQKSLSLSPGK
heavy: EVQLVQSGAEVKKPGSSVKVSCKASGYTITDSNIHWVRQAPGQSLEWIGYIYPYNGGTDYNQKFKNRATLTVDNPTNTAYMELSSLRSEDTAFYYCVNGNPWLAYWGQGTLVTVSSASTKGPSVFPLAPSSKSTSGGTAALGCLVKDYFPEPVTVSWNSGALTSGVHTFPAVLQSSGLYSLSSVVTVPSSSLGTQTYICNVNHKPSNTKVDKRVEPKSCDKTHTCPPCPAPEFEGGPSVFLFPPKPKDTLMISRTPEVTCVVVDVSHEDPEVKFNWYVDGVEVHNAKTKPREEQYNSTYRVVSVLTVLHQDWLNGKEYKCKVSNKALPASIEKTISKAKGQPREPQVCTLPPSREEMTKNQVSLSCAVKGFYPSDIAVEWESNGQPENNYKTTPPVLDSDGSFFLVSKLTVDKSRWQQGNVFSCSVMHEALHNRFTQKSLSLSPGK
light: DIQLTQSPSTLSASVGDRVTITCRASESLDNYGIRFLTWFQQKPGKAPKLLMYAASNQGSGVPSRFSGSGSGTEFTLTISSLQPDDFATYYCQQTKEVPWSFGQGTKVEVKRTVAAPSVFIFPPSDEQLKSGTASVVCLLNNFYPREAKVQWKVDNALQSGNSQESVTEQDSKDSTYSLSSTLTLSKADYEKHKVYACEVTHQGLSSPVTKSFNRGEC
B4: the flow cytometry signal in test [5] was 62500; in test [6], 59000; with CD33 on KILR-HL60 cells [7], 295000; with CD33 on KILR-HL60 cells [8], 595000.

B5: CD3 × CD33-BspAb66 (bispecific antibody, human IgG1, kappa)
scFv: EVQLVESGGGLVQPGRSLRLSCAASGFTFDDYAMHWVRQAPGKGLEWVSGISWNSGSIGYADSVKGRFTISRDNAKNSLYLQMNSLRAEDTALYYCAKDSRGYGDYRLGGAYWGQGTLVTVSSGGGGSGGGGSGGGGSGGGGSEIVMTQSPATLSVSPGERATLSCRASQSVSSNLAWYQQKPGQAPRLLIYGASTRATGIPARFSGSGSGTEFTLTISSLQSEDFAVYYCQQYNNWPWTFGQGTKVEIKTSGPGGPDKTHTCPPCPAPEFEGGPSVFLFPPKPKDTLMISRTPEVTCVVVDVSHEDPEVKFNWYVDGVEVHNAKTKPREEQYNSTYRVVSVLTVLHQDWLNGKEYKCKVSNKALPASIEKTISKAKGQPREPQVYTLPPCREEMTKNQVSLWCLVKGFYPSDIAVEWESNGQPENNYKTTPPVLDSDGSFFLYSKLTVDKSRWQQGNVFSCSVMHEALHNHYTQKSLSLSPGK
heavy: B4 heavy
light: B4 light
notes: also called CD3δε-specific control antibody scFv-Fc knob/TM x gemtuzumab
As for B5, the flow cytometry signal in test [5] was found to be 6660; in test [6], 23100; in the test with CD33 on KILR-HL60 cells [7], 569000; with CD33 on KILR-HL60 cells [8] it was 499000.

B6: Control Humanized anti-CD3 (high affinity) scFv-Fc knob/TM x gemtuzumab (bispecific antibody)
scFv: EVQLVESGGGLVQPGGSLRLSCAASGFTFSTYAMNWVRQAPGKGLEWVGRIRSKYNNYATYYADSVKGRFTISRDDSKNTLYLQMNSLRAEDTAVYYCVRHGNFGDSYVSWFAYWGQGTLVTVSSGKPGSGKPGSGKPGSGKPGSQAVVTQEPSLTVSPGGTVTLTCGSSTGAVTTSNYANWVQQKPGKSPRGLIGGTNKRAPGVPARFSGSLLGGKAALTISGAQPEDEADYYCALWYSNHWVFGGGTKLTVLGGGGSDKTHTCPPCPAPEFEGGPSVFLFPPKPKDTLMISRTPEVTCVVVDVSHEDPEVKFNWYVDGVEVHNAKTKPREEQYNSTYRVVSVLTVLHQDWLNGKEYKCKVSNKALPASIEKTISKAKGQPREPQVYTLPPCREEMTKNQVSLWCLVKGFYPSDIAVEWESNGQPENNYKTTPPVLDSDGSFFLYSKLTVDKSRWQQGNVFSCSVMHEALHNHYTQKSLSLSPGK
heavy: B4 heavy
light: B4 light
Take B6: the flow cytometry signal in test [5] stood at 37900; in test [6], 38400; in the test with CD33 on KILR-HL60 cells [7], 544000; in the test with CD33 on KILR-HL60 cells [8], 648000.

B7: Control Humanized anti-CD3 (low affinity) scFv-Fc knob/TM x gemtuzumab (bispecific antibody)
scFv: B6 scFv with A113D
heavy: B4 heavy
light: B4 light
B7: the flow cytometry signal came out at 2620 in test [5], 3230 in test [6], 535000 with CD33 on KILR-HL60 cells [7] and 623000 with CD33 on KILR-HL60 cells [8].

B8: Gemtuzumab (antibody, V domains shown)
VH: EVQLVQSGAEVKKPGSSVKVSCKASGYTITDSNIHWVRQAPGQSLEWIGYIYPYNGGTDYNQKFKNRATLTVDNPTNTAYMELSSLRSEDTAFYYCVNGNPWLAYWGQGTLVTVSS
VL: DIQLTQSPSTLSASVGDRVTITCRASESLDNYGIRFLTWFQQKPGKAPKLLMYAASNQGSGVPSRFSGSGSGTEFTLTISSLQPDDFATYYCQQTKEVPWSFGQGTKVEVKR
notes: the heavy chain entry carries the hole, H435R/Y436F and L234F/L235E/P331S changes, which the control may not have; also called anti-CD33 control antibody
In the case of B8, the flow cytometry signal in test [5] was 2570; in test [6], 2570; with CD33 on KILR-HL60 cells [7], 321000; with CD33 on KILR-HL60 cells [8], 351000.
